Laboratory results published in patent publication US20250236682A1 (CENTENAIRE BIOSCIENCES, published 2025).

Columns and labels:
[1] = molecular target: T1, neonatal Fc receptor (FcRn) (Homo sapiens (Human), UniProt P55899 24-297; P61769 21-119); assay: BLI, antibody on FAB2G sensor, FcRn analyte, pH 6.0
T1 construct: analyte in solution at pH 6.0; copies: 1 + 1

[2] = molecular target: T2, human HER2 recombinant protein (R&D systems, 1129-ER) (human, UniProt P04626 23-652); assay: BLI, HER2 on HIS1K sensor
T2 construct: extracellular domain; also called HER2 antigen; HER2 extracellular domain (ECD)

[3] = molecular target: T3, human FcγRI (R&D systems, 1257-FC) (human, UniProt P12314 16-288); assay: BLI, His-FcγRI on HIS1K sensor
T3 construct: bought; also called FcγRI(CD64); Fcγ receptor 1
T3 sequence (P12314 16-288 limits assumed): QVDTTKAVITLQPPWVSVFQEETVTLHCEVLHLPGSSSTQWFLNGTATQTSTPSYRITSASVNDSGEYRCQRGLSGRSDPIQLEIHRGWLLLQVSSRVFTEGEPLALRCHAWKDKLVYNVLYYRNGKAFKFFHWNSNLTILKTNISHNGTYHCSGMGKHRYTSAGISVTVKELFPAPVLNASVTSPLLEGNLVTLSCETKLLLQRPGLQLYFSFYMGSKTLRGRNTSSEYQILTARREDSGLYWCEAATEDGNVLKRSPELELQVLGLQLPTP

[4] = molecular target: T4, human FcγRIIIA (176V isoform, R&D systems, 4325-FC) (human, UniProt P08637 17-208); assay: BLI, His-FcγRIIIA on HIS1K sensor
T4 construct: bought; also called FcγRIIIA(CD16A, 176V); Fcγ receptor 3A (176V isoform)
T4 sequence (P08637 17-208 F176V limits assumed): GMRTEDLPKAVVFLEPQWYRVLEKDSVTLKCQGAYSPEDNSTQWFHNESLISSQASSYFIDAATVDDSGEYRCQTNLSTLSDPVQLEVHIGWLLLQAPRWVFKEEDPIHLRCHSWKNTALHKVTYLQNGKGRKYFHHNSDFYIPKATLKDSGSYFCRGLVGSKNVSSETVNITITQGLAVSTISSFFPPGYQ

[5] = molecular target: T2, human HER2 recombinant protein (R&D …); assay: BLI, HER2 on HIS1K sensor, 1 to 32 nM antibody

T1 sequence (P55899 24-297 limits assumed, form in doubt, chain 1 of 2): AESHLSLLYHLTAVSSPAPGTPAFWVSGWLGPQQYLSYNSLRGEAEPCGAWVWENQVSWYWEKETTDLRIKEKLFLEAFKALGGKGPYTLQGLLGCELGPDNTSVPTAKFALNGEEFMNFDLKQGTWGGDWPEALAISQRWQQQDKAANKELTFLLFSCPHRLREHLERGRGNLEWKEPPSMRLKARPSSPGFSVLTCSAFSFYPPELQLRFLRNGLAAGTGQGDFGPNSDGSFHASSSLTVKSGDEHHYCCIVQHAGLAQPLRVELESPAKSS
T1 sequence (P61769 21-119 limits assumed, form in doubt, chain 2 of 2): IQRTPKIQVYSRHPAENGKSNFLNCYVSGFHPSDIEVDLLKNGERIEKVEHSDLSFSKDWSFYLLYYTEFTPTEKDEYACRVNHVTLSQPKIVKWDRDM

B1: pertuzumab (antibody, V domains shown)
VH: EVQLVESGGGLVQPGGSLRLSCAASGFTFTDYTMDWVRQAPGKGLEWVADVNPNSGGSIYNQRFKGRFTLSVDRSKNTLYLQMNSLRAEDTAVYYCARNLGPSFYFDYWGQGTLVTVSS
VL: DIQMTQSPSSLSASVGDRVTITCKASQDVSIGVAWYQQKPGKAPKLLIYSASYRYTGVPSRFSGSGSGTDFTLTISSLQPEDFATYYCQQYYIYPYTFGQGTKVEIK
For B1, the Kd [1] was 322 nM, the koff [1] was 0.0154 s⁻¹ and the kon [1] was 47900 M⁻¹ s⁻¹.

B2: H01Fv1 (antibody, human IgG1)
heavy: not shown
light: not shown
chain: DKTHTCPPCPAPELLGGPSVFLFPPKPKDTLMISRTPEVTCVVVDVSHEDPEVKFNWYVDGVEVHNAKTKPREEQYNSTYRVVSVLTVLHQDWLNGKEYKCKVSNKALPAPIEKTISKAKGQPREPQVCTLPPSREEMTKNQVSLSCAVKGFYPSDIAVEWESNGQPENNYKTTPPVLDSDGSFFLVSKLTVDKSRWQQGNVFSCSVMHEALHNRFTQKSLSLSPGK
notes: also called Fv-(Fc)2, VH G44C / VL Q100C
B2 gave a Kd [2] of 0.244 nM, a koff [2] of 5.11e-05 s⁻¹ and a kon [2] of 210000 M⁻¹ s⁻¹.

B3: H01Fv7 (antibody, human IgG1, kappa)
heavy: not shown
light: not shown
chain: DKTHTCPPCPAPELLGGPSVFLFPPKPKDTLMISRTPEVTCVVVDVSHEDPEVKFNWYVDGVEVHNAKTKPREEQYNSTYRVVSVLTVLHQDWLNGKEYKCKVSNKALPAPIEKTISKAKGQPREPQVCTLPPSREEMTKNQVSLSCAVKGFYPSDIAVEWESNGQPENNYKTTPPVLDSDGSFFLVSKLTVDKSRWQQGNVFSCSVMHEALHNRFTQKSLSLSPGK
notes: also called Fv-(Fc)2, VH G44C, Q105C, F126C / VL Q100C, A43C, S121C
B3 gave a Kd [2] of 0.279 nM, a koff [2] of 7.7e-05 s⁻¹ and a kon [2] of 276000 M⁻¹ s⁻¹.

B4: H01Fv4 (antibody, human IgG1)
heavy: not shown
light: not shown
chain: DKTHTCPPCPAPELLGGPSVFLFPPKPKDTLMISRTPEVTCVVVDVSHEDPEVKFNWYVDGVEVHNAKTKPREEQYNSTYRVVSVLTVLHQDWLNGKEYKCKVSNKALPAPIEKTISKAKGQPREPQVCTLPPSREEMTKNQVSLSCAVKGFYPSDIAVEWESNGQPENNYKTTPPVLDSDGSFFLVSKLTVDKSRWQQGNVFSCSVMHEALHNRFTQKSLSLSPGK
notes: also called Fv-(Fc)2, VH G44C, Q105C / VL Q100C, A43C
For B4, the Kd [2] was 0.326 nM, the koff [2] was 7.71e-05 s⁻¹ and the kon [2] was 237000 M⁻¹ s⁻¹.

B5: H01Fv5 (antibody, human IgG1, kappa)
heavy: not shown
light: not shown
chain: DKTHTCPPCPAPELLGGPSVFLFPPKPKDTLMISRTPEVTCVVVDVSHEDPEVKFNWYVDGVEVHNAKTKPREEQYNSTYRVVSVLTVLHQDWLNGKEYKCKVSNKALPAPIEKTISKAKGQPREPQVCTLPPSREEMTKNQVSLSCAVKGFYPSDIAVEWESNGQPENNYKTTPPVLDSDGSFFLVSKLTVDKSRWQQGNVFSCSVMHEALHNRFTQKSLSLSPGK
notes: also called Fv-(Fc)2, VH G44C, F122C / VL Q100C, S121C
With B5 the Kd [2] was 0.393 nM, the koff [2] was 0.000107 s⁻¹ and the kon [2] was 273000 M⁻¹ s⁻¹.

B6: H01Fv6 (antibody, human IgG1, kappa)
heavy: not shown
light: not shown
chain: DKTHTCPPCPAPELLGGPSVFLFPPKPKDTLMISRTPEVTCVVVDVSHEDPEVKFNWYVDGVEVHNAKTKPREEQYNSTYRVVSVLTVLHQDWLNGKEYKCKVSNKALPAPIEKTISKAKGQPREPQVCTLPPSREEMTKNQVSLSCAVKGFYPSDIAVEWESNGQPENNYKTTPPVLDSDGSFFLVSKLTVDKSRWQQGNVFSCSVMHEALHNRFTQKSLSLSPGK
notes: also called Fv-(Fc)2, VH Q105C, F126C / VL A43C, S121C
With B6 the Kd [2] was 0.0487 nM, the koff [2] was 6.61e-06 s⁻¹ and the kon [2] was 136000 M⁻¹ s⁻¹.

B7: H01Fv2 (antibody, human IgG1)
heavy: not shown
light: not shown
chain: DKTHTCPPCPAPELLGGPSVFLFPPKPKDTLMISRTPEVTCVVVDVSHEDPEVKFNWYVDGVEVHNAKTKPREEQYNSTYRVVSVLTVLHQDWLNGKEYKCKVSNKALPAPIEKTISKAKGQPREPQVCTLPPSREEMTKNQVSLSCAVKGFYPSDIAVEWESNGQPENNYKTTPPVLDSDGSFFLVSKLTVDKSRWQQGNVFSCSVMHEALHNRFTQKSLSLSPGK
notes: also called Fv-(Fc)2, VH Q105C / VL A43C
For B7, the Kd [2] was 0.324 nM, the koff [2] was 3.78e-05 s⁻¹ and the kon [2] was 117000 M⁻¹ s⁻¹.

B8: P01DE4 (antibody, human IgG1, kappa)
heavy: not shown
light: not shown
chain: DKTHTCPPCPAPELLGGPDVFLFPPKPKDTLMISRTPEVTCVVVDVSHEDPEVKFNWYVDGVEVHNAKTKPREEQYNSTYRVVSVLTVLHQDWLNGKEYKCKVSNKALPAPEEKTISKAKGQPREPQVCTLPPSREEMTKNQVSLSCAVKGFYPSDIAVEWESNGQPENNYKTTPPVLDSDGSFFLVSKLTVDKSRWQQGNVFSCSVMHEALHNHYTQKSLSLSPGK
notes: monovalent Fab-(Fc)2; also called P01 with S239D and I332E in all Fc chains
Work on B8 yielded a Kd [3] of 0.038 nM, a koff [3] of 2.85e-05 s⁻¹ and a kon [3] of 748000 M⁻¹ s⁻¹. For the same binder, the Kd [4] was 0.33 nM, the koff [4] was 0.000159 s⁻¹ and the kon [4] was 478000 M⁻¹ s⁻¹. For the same binder, the Kd [5] was 0.224 nM, the koff [5] was 5.51e-05 s⁻¹ and the kon [5] was 246000 M⁻¹ s⁻¹.

B9: H01DE4 (antibody, human IgG1, kappa)
heavy: not shown
light: not shown
chain: DKTHTCPPCPAPELLGGPDVFLFPPKPKDTLMISRTPEVTCVVVDVSHEDPEVKFNWYVDGVEVHNAKTKPREEQYNSTYRVVSVLTVLHQDWLNGKEYKCKVSNKALPAPEEKTISKAKGQPREPQVCTLPPSREEMTKNQVSLSCAVKGFYPSDIAVEWESNGQPENNYKTTPPVLDSDGSFFLVSKLTVDKSRWQQGNVFSCSVMHEALHNHYTQKSLSLSPGK
notes: monovalent Fab-(Fc)2; also called H01 with S239D and I332E in all Fc chains
B9 gave a Kd [3] of 0.036 nM, a koff [3] of 3.06e-05 s⁻¹ and a kon [3] of 852000 M⁻¹ s⁻¹. The Kd [4] was 0.1 nM, the koff [4] was 5.51e-05 s⁻¹ and the kon [4] was 526000 M⁻¹ s⁻¹. It also gave a Kd [5] of 0.145 nM, a koff [5] of 3.73e-05 s⁻¹ and a kon [5] of 258000 M⁻¹ s⁻¹.
